Measured values reported in paper PMC4400149, “The Carboxy-Terminal Domain of Erb1 Is a Seven-Bladed ß-Propeller that Binds RNA” (PLoS ONE, 2015).

Assays:
[1] = target: T1, ChErb1 432-801 (C-terminal seven-bladed beta-propeller) (Chaetomium thermophilum var. thermophilum) (UniProt G0SCK6); assay: fluorescence titration (intrinsic Trp); settings: apparent KD; emission at 315 nm; 1.5 uM protein; Fluorescence: 20 mM Hepes pH 7.5, 150 mM NaCl, 5% glycerol, 2 mM beta-mercaptoethanol, 25 C; bead pull-down: 50 mM Tris pH 8, 100 mM NaCl, 5 mM MgCl2, 3 mM …
T1 sequence: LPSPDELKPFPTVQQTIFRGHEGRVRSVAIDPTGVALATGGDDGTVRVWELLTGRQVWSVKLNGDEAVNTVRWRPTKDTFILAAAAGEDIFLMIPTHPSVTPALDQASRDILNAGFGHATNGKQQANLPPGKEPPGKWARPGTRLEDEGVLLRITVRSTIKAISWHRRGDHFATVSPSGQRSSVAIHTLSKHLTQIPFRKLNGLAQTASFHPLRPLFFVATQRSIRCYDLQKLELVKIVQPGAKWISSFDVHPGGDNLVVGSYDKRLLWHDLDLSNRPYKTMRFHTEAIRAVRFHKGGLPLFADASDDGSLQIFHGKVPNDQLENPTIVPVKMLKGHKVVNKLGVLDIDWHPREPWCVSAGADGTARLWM

[2] = target: T2, ChErb1 432-801 (C-terminal seven-bladed beta-propeller) (Chaetomium thermophilum var. …, UniProt G0SCK6 432-801); assay: BLI; Fluorescence: 20 mM Hepes pH 7.5, 150 mM NaCl, 5% glycerol, 2 mM beta-mercaptoethanol, 25 C; bead pull-down: 50 mM Tris pH 8, 100 mM NaCl, 5 mM MgCl2, 3 mM DTT, 0.1% Triton X-100, 0.1 mg/ml BSA, room temperature; BLI conditions not in material; settings: protein: recombinant; tags: N-terminal 6xHis with 3C site (pET28-NKI/LIC 6His/3C); single strand
T2 sequence: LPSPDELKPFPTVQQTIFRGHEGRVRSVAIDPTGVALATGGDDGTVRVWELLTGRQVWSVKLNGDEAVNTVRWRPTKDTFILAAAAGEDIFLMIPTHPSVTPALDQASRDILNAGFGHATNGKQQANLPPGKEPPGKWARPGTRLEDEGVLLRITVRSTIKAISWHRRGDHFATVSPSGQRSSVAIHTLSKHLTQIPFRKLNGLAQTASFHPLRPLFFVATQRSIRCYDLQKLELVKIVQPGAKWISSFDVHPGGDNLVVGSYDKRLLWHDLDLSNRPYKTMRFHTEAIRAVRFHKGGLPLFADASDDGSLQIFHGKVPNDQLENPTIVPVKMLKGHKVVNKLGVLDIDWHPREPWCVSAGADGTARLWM

[3] = target: T3, Erb1 (Eukaryotic Ribosome Biogenesis 1) from Saccharomyces cerevisiae (Saccharomyces cerevisiae, UniProt Q04660 1-807); assay: SEC; purified Nop7 and Erb1 mixed in equimolar amounts, Superdex200 16/60 in SE buffer (20mM Hepes pH 7.5; 0.25M NaCl; 2 mM β-mercaptoethanol, 5% glycerol); fractions of the heterodimer collected; settings: both partners purified
T3 construct: Erb1, Saccharomyces cerevisiae, cloned from genomic DNA; 807 residues; Vector pET28-NKI/LIC 6His/3C: N-terminal 6xHis tag followed by a 3C protease site; no cleavage of the tag is told; also called 6xHis-Erb1; source: E. coli BL21 Codon Plus, purified (IMAC, size exclusion chromatography)
T3 sequence (looked up): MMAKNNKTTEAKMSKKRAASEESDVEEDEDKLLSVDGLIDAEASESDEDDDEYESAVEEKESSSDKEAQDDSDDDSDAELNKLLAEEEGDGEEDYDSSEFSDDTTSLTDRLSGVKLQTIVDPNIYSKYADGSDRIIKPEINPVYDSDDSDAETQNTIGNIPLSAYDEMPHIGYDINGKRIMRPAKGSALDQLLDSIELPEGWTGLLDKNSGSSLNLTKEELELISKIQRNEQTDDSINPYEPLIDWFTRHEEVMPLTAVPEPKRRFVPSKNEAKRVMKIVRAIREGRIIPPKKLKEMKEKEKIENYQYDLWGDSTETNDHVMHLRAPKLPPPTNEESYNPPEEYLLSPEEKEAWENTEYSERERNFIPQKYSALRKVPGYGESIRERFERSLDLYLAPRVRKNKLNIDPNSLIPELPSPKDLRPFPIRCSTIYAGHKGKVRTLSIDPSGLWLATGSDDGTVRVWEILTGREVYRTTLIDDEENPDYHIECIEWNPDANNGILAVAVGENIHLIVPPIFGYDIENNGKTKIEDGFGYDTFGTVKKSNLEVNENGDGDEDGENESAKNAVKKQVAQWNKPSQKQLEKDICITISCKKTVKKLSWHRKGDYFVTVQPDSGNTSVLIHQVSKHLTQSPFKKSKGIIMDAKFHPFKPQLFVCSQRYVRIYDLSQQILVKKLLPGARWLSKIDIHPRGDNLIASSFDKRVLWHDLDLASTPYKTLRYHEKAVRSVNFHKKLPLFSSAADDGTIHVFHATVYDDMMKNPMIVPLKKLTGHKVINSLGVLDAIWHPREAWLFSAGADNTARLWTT

For free poly(U), the Kd [1] was 3000 nM.

UUUUUUUUUUUUUUU (ssRNA) [biotinylated poly(U) 15-mer] showed a Kd [2] of 170 nM.

B1: Nop7 from Saccharomyces cerevisiae (natural protein, UniProt P53261 1-605, looked up)
chain: MRIKKKNTRGNARNFITRSQAVRKLQVSLADFRRLCIFKGIYPREPRNKKKANKGSTAPTTFYYAKDIQYLMHEPVLAKFREHKTFARKLTRALGRGEVSSAKRLEENRDSYTLDHIIKERYPSFPDAIRDIDDALNMLFLFSNLPSTNQVSSKIINDAQKICNQWLAYVAKERLVRKVFVSIKGVYYQANIKGEEVRWLVPFKFPENIPSDVDFRIMLTFLEFYSTLLHFVLYKLYTDSGLIYPPKLDLKKDKIISGLSSYILESRQEDSLLKLDPTEIEEDVKVESLDASTLKSALNADEANTDETEKEEEQEKKQEKEQEKEQNEETELDTFEDNNKNKGDILIQPSKYDSPVASLFSAFVFYVSREVPIDILEFLILSCGGNVISEAAMDQIENKKDIDMSKVTHQIVDRPVLKNKVAGRTYIQPQWIFDCINKGELVPANKYLPGEALPPHLSPWGDAIGYDPTAPVEEGEEEESESESESEDQVEEEDQEVVAGEEDDDDDEELQAQKELELEAQGIKYSETSEADKDVNKSKNKKRKVDEEEEEKKLKMIMMSNKQKKLYKKMKYSNAKKEEQAENLKKKKKQIAKQKAKLNKLDSKK
notes: Nop7, Saccharomyces cerevisiae, cloned from genomic DNA; called full length Nop7 in the results; Vector pNIC28-Bsa4: N-terminal 6xHis tag followed by a TEV site; no cleavage of the tag is told; also called 6xHis-Nop7; source: E. coli BL21 Codon Plus, purified (IMAC, size exclusion chromatography)
B1: binds [3].
